The test addresses T1, TRAP1 (human mitochondrial Hsp90) fused to SpyTag (human, UniProt Q12931 60-704, limits assumed).
T1 construct: Applied at 270 nM; also called TRAP1-SpyTag; TRAP1 with SpyTag
T1 sequence: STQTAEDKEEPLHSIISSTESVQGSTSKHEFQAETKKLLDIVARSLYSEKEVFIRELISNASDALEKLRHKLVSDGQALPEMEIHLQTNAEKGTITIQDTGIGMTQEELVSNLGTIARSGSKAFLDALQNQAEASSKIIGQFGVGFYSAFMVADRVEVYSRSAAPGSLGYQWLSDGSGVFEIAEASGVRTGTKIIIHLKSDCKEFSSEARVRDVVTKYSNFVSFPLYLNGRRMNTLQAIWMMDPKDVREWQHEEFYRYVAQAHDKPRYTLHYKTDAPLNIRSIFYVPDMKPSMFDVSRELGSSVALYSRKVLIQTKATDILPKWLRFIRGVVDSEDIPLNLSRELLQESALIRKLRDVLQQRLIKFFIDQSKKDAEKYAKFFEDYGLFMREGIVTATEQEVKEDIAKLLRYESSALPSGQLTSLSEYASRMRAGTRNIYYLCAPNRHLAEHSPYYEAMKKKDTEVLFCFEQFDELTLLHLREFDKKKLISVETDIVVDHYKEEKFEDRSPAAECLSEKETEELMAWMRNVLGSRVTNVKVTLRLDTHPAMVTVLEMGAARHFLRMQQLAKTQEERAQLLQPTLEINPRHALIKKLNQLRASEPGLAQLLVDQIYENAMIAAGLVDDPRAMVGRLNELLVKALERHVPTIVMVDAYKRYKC
Put plainly: cryo-EM particle density on SpyTag affinity grid after washing. On the procedure:
The irreversible covalent bond forms within minutes and is highly specific and robust, paving the way for “purification on the grid”. A buffer with a pH of 7.5 containing 20 mM HEPES, 60 mM KCl was used throughout the process. SpyCatcher was diluted with buffer to a final concentration of 1.4 μM. SpyTag peptide was first dissolved in DMSO to a concentration of 560 μM and then diluted with buffer to a final concentration of 2.8 μM. […] The grid was washed with DI water and ethanol 3 times, and dried in ambient for 1 hour. Then the grid was picked up by tweezers from VITROBOT™ IV (Fisher Thermo Scientfic) and placed horizontally.
After coupling the SpyTag or SpyCatcher to the maleimide grids, incubation with a cognate-tagged protein of interest efficiently formed a stable attachment in a matter of minutes. In a first example, a SpyTag grid was exposed to a dilute solution (270 nM) of the dimeric mitochondrial Hsp90 molecular chaperone (TRAP1, ˜150KDa) fused to either SpyTag (control) or SpyCatcher (cognate sample, total molecular weight ˜165KDa). The grids were extensively washed to remove unbound or loosely adsorbed proteins. TRAP1 with SpyCatcher or SpyTag was diluted in buffer with 1 mM ADP-BeFₓ/MgCl₂ and was incubated at 37° C. for 30 min to achieve a homogenous closed state of TRAP1²⁴. The concentration of TRAP1 was 270 nM in all cases. […]

Data on one molecule can be found in patent publication US20210310910A1 (University of California, published 2021).

Ends that are not written are not given here.

B1: SpyTag peptide anchored to the graphene oxide grid via a PEG spacer (peptide)
peptide: VPTIVMVDAYKRYKC
modifications: also: Cys coupled to azide-PEG-maleimide on graphene oxide film, position not given here
notes: also called SpyTag grid
Regarding B1, the binding result was “no binding (tested: 270 nM)”.
